# Columns and labels:
# [1] = molecular target: SUMO*-DENV-4 NS1 fusion protein (not stated | dengue virus 4 (DENV-4), strain H421) (UniProt Q58HT7); experiment: SDS-PAGE
# [2] = molecular target: T1, SUMO*-DENV-4 NS1 fusion protein (Dengue virus 4 strain H241 (printed …, UniProt Q58HT7)); experiment: ELISA; settings: one partner purified
# T1 construct: also called SUMO*-DENV-4 rNS1 fusion protein; SUMO*-NS1 fusion protein
# [3] = molecular target: T2, recombinant DENV-4 non-structural protein 1 (unfused commercial DENV-4 rNS1) (Dengue virus 4, strain  …, UniProt P09866); experiment: western blot; settings: one partner purified
# [4] = molecular target: T2, recombinant DENV-4 non-structural …; experiment: ELISA; settings: one partner purified
# T1 sequence (Q58HT7 whole entry, the tested form may be a part): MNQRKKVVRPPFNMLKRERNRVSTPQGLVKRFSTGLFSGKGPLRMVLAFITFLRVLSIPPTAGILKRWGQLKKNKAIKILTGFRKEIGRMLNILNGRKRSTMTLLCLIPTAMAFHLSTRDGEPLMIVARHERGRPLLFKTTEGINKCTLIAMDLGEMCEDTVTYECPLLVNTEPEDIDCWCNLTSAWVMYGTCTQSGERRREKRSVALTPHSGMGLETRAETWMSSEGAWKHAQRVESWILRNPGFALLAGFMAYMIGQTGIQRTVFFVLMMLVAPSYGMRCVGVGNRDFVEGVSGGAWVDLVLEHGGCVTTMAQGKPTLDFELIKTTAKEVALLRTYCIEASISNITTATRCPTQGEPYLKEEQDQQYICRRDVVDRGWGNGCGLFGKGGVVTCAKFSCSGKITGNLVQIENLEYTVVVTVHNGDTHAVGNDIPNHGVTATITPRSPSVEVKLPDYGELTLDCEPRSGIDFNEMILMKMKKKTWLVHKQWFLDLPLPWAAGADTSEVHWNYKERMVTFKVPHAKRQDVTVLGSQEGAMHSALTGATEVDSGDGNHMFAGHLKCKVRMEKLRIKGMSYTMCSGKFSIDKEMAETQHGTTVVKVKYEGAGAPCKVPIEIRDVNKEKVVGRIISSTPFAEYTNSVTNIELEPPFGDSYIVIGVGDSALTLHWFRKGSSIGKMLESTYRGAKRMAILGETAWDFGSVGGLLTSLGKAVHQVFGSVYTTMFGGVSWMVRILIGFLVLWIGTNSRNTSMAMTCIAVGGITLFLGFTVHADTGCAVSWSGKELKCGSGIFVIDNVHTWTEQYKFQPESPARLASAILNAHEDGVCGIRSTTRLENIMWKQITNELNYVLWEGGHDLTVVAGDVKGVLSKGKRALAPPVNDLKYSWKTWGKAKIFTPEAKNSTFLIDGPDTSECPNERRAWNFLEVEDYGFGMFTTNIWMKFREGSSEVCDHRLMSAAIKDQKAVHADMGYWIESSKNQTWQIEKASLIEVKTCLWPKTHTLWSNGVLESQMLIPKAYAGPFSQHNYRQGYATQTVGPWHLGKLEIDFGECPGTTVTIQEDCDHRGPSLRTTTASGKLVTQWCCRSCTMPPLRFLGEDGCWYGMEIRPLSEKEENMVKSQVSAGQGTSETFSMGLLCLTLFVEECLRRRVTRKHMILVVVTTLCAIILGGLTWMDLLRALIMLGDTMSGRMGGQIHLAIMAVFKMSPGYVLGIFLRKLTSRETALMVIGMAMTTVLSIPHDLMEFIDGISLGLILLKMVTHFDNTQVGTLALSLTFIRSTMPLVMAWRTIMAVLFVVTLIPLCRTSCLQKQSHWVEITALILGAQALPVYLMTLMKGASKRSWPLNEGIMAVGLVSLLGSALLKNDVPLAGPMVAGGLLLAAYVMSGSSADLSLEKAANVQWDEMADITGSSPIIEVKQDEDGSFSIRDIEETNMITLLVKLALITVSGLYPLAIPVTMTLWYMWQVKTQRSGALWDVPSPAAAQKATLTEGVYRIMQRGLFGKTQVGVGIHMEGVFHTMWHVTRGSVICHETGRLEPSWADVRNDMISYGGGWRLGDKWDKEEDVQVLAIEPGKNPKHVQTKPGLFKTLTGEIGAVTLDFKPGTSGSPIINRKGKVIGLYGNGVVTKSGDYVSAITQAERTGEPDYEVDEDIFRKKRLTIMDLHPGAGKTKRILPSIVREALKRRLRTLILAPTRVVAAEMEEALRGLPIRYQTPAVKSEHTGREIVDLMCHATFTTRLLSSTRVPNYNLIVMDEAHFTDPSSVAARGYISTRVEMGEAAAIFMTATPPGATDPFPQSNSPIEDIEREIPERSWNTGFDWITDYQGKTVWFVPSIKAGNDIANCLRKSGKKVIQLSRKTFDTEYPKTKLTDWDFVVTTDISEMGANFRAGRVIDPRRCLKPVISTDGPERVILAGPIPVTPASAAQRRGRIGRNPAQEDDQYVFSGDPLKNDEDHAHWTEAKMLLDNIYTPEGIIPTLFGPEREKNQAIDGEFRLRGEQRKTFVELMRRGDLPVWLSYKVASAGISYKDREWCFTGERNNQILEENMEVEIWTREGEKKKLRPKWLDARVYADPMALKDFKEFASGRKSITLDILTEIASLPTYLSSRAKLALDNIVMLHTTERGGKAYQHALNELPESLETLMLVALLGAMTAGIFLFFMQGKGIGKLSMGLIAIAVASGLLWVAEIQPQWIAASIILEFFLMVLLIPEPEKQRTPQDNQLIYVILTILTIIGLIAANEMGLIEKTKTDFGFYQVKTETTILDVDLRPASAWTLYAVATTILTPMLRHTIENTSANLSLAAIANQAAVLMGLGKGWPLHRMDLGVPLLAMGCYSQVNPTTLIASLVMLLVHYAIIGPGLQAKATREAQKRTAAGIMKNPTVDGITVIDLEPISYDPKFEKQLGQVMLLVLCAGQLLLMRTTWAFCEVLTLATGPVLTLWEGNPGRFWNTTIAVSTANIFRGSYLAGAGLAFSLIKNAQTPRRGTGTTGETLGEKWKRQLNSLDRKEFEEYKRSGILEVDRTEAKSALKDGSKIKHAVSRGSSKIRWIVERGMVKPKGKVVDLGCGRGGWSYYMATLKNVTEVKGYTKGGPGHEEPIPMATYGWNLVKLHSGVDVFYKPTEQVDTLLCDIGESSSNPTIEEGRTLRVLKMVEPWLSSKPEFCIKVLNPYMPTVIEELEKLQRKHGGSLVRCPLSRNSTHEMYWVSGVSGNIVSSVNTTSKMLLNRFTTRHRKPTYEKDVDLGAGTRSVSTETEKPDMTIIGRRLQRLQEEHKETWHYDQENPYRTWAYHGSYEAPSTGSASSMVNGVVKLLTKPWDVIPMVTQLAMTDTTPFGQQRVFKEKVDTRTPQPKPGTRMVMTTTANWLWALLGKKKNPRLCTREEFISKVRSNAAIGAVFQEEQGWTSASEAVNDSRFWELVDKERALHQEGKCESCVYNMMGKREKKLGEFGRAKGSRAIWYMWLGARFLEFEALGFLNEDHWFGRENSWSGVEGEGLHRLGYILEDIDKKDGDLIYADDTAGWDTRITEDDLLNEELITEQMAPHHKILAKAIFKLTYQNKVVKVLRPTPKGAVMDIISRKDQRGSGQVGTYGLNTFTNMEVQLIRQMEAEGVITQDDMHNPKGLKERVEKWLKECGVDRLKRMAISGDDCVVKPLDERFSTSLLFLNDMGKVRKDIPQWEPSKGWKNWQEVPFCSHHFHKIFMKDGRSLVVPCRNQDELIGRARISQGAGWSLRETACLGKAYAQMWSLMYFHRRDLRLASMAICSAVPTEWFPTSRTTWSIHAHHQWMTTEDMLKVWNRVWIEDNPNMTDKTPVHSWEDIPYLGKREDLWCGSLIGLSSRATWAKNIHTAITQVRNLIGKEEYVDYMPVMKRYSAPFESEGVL
Molecule,stoichiometry N [1],binding result [2],binding result [3],binding result [4]
SUMO*-DENV-4 NS1 fusion protein (from UniProt Q58HT7 775-1126),2,–,–,–
"MAb 8A6F2 (antibody, V domains shown, also called biotinylated 8A6F2; 86FA2) VH: DVQLQESGPDLVKPSQSLSLTCTVTGYSITSGYNWHWIRQFPGNKLEWMGYIHYSGGTNYNPSLKSRISITRDTSKNQFFLQLNSVTTEDTATYYCARRTGTVPFAYWGQGTLVTVSA VL: EIVLTQSPALMAASPGEKVTITCSVSSSISSSNLHWYQQKSETSPKPWIYGTSNLASGVPVRFSGSGSGTSYSLTISSMEAEDAATYYCQQWSSYPLTFGGGTKLEIK",–,binds,–,–
"MAb 3H7A9 (antibody, V domains shown) VH: EVQLQQSGAELVKPGASVKLSCTASGFNIKDTYMHWVKQRPEQGLEWIGRIDPANGNTQYGPKFQGKATITADTSSNTAYLQLSSLTSEDTAVYYCARGGIFYYYGSSYSYAMDYWGQGTSVTVSS VL: DIQMTQTTSSLSASLGDRVTISCRASQDISNYLNWYQQKPDGTVTLLIYYTSRLHSGVPSRFSGSGSGTDYSLTISNLEQEDIATYFCQQGNTLPRTFGGGTKLEIK",–,binds,binds,–
"MAb 6D4B10 (antibody, V domains shown, also called biotinylated 6D4B10) VH: EVQLQQSGPELVKPGASVKMSCKASGYTFTSYVMHWVKQKPGQGLEWIGYLNPYNDDTKYNEKFKGKATLTSDKSSSTAYMELSSLTSEDSAVYYCAYGPPYALDYWGQGTSVTVSS VL: QIVLTQSPAIMTASLGERVTMTCTASSSVSSSYLHWYQQKPGSSPKLWIYSTSNLASGVPARFSGSGSGTSYSLTISSMEAEDAATYYCHQYHRSPYTFGGGTKLEIK",–,binds,–,binds

# — paper PMC5801815 (Virology Journal, 2018)
